Experimental data reported in patent publication US7544477B2, “Circularly permutated, interaction-activated proteins” (KaloBios, Inc., priority 2000, dated 2009).

Columns and labels:
[1] = target: hetero-dimerizing leucine zipper helix from the c-jun subunit of the AP-1 transcription factor; experiment: cell-based or functional assay
[2] = test system: TG1 cells; experiment: Activation of TEM-1 β-lactamase fragment complementation by disulfide-assisted fos-jun interaction (plating on ampicillin); type: cell-based, E. coli; conditions: without a stabilizing peptide; same expression conditions
Method: Cysteines were added to the sequences of α197 and ω198, between the break-point termini and the linkers leading to the heterologous interactors.
Disulfide formation was made to be more dependent on the heterologous interaction by two modifications. First, disulfide formation can be inhibited by inclusion of a reducing agent in the growth medium. […] Secondly, the cysteines were shifted by one residue each away form the break-point and into the β-lactamase sequence, so that they became separated in the native fold by an additional ˜8 Å.

hetero-dimerizing leucine zipper helix from the c-jun subunit of the AP-1 transcription factor, sequence (P05412 280-308): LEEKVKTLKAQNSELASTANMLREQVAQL

## hetero-dimerizing leucine zipper helix from the c-fos subunit of the AP-1 transcription factor (peptide)
[1]
  Hi Amp (max ampicillin with >10% plating), break-point A227/G228, +Fos/Jun: 50 µg/mL
  Hi Amp (max ampicillin with >10% plating), break-point A227/G228, +S-S, +Fos/Jun: 200 µg/mL
  Hi Amp (max ampicillin with >10% plating), break-point E63/E64, +S-S, +Fos/Jun: 25 µg/mL
  Hi Amp (max ampicillin with >10% plating), break-point E197/L198, +Fos/Jun: 50 µg/mL
  Hi Amp (max ampicillin with >10% plating), break-point E197/L198, +S-S, +Fos/Jun: 100 µg/mL
  Hi Amp (max ampicillin with >10% plating), break-point G253/K254, +Fos/Jun: 50 µg/mL
  Hi Amp (max ampicillin with >10% plating), break-point G253/K254, +S-S, +Fos/Jun: 400 µg/mL
  Hi Amp (max ampicillin with >10% plating), break-point K215/V216, +Fos/Jun: 25 µg/mL
  Hi Amp (max ampicillin with >10% plating), break-point K215/V216, +S-S, +Fos/Jun: 100 µg/mL
  Hi Amp (max ampicillin with >10% plating), break-point N52/S53, +S-S, +Fos/Jun: 25 µg/mL
  Hi Amp (max ampicillin with >10% plating), break-point P174/N175, +Fos/Jun: 50 µg/mL
  Hi Amp (max ampicillin with >10% plating), break-point P174/N175, +S-S, +Fos/Jun: 200 µg/mL
  Hi Amp (max ampicillin with >10% plating), break-point Q99/N100, +S-S, +Fos/Jun: 25 µg/mL
  activation index, break-point P174/N175, fos-jun with disulfide: 1e+07
  activation index, α197/ω198 with break-point cysteines, 10 mM DTT, 100 µg/ml ampicillin: > 1000 fold
  activation index, α197/ω198 with cysteines shifted by one residue, 50 µg/ml ampicillin: > 100000
  ampicillin concentration of recovery, α197/ω198 with break-point tri-peptides, strain DH5α: 800 µg/mL
  ampicillin concentration of recovery, α197/ω198 with break-point tri-peptides, strain TG1: 400 µg/mL
  plating efficiency on 25 µg/ml ampicillin, wild-type α197-jun + fos-ω198: 30%
  plating efficiency on 50 µg/ml ampicillin, α197-fos + jun-ω198 alone: 1%
  plating efficiency on 50 µg/ml ampicillin, α197-fos + jun-ω198 with GRE-trxA in trans: 100%
  plating efficiency on 50 µg/ml ampicillin, α197/ω198 with cysteines shifted by one residue: 10%
  plating efficiency on 100 µg/ml ampicillin, wild-type α197-jun + fos-ω198 (colonies per cell): < 1e-06
  plating efficiency on 400 µg/ml ampicillin, break-point G253/K254, fos-jun with disulfide: > 25%

B1: wild-type TEM-1 β-lactamase: intact TEM-1 β-lactamase of E. coli (protein, UniProt P62593 24-286, looked up)
Beta-lactamase TEM: HPETLVKVKDAEDQLGARVGYIELDLNSGKILESFRPEERFPMMSTFKVLLCGAVLSRVDAGQEQLGRRIHYSQNDLVEYSPVTEKHLTDGMTVRELCSAAITMSDNTAANLLLTTIGGPKELTAFLHNMGDHVTRLDRWEPELNEAIPNDERDTTMPAAMATTLRKLLTGELLTLASRQQLIDWMEADKVAGPLLRSALPAGWFIADKSGAGERGSRGIIAALGPDGKPSRIVVIYTTGSQATMDERNRQIAEIGASLIKHW
[2]
  Ampicillin concentration on which cells plate: ≤ 1000 µg/mL
